Source: patent US6514942B1, “Methods and compositions for stimulating T-lymphocytes” (The Board of Regents, The University of Texas System, priority 1995, dated 2003)

Legend:
[1] = biological target: T1, HLA-A2 on indicator T2 cells (Homo sapiens, UniProt P04439, D140Y/D185E/D98H/E176V/E277Q/G131W/G231S/I119V/I121R/I166T/I218V/L300P/L318F/N151K/N90K/P208A/P217A/Q86G/Q94H/R138H/R169H/T345S); assay: Stabilization of HLA-A2 expression on indicator line T2; format: cell-based
T1 construct: cell surface expression of HLA-A2 is lower (30-40%) than in normal LBL lines transfected with HLA-A2; endogenous in cells; host or cells: T2 (transport deletion mutant) human lymphoblastoid cells, obtained from Dr. Peter Creswell
Description: Since HER-2 is a self-antigen, during thymic selection, a number of T-cells carrying receptors with high affinity for the HLA-peptide complex are silenced either by elimination ro tolerization. A pre-condition for induction of a high affinity TCR-(MHC+peptide) interactions, is a stable (MHC+peptide) complex. […] However, stabilization of HLA-Class I binding by exogenously added peptide is dependent on introduction of dominant anchors in positions P2 and P9 which are not recognized by TCR.
Peptide D113, […] (SEQ ID NO:17), is the natural nonapeptide […].

[2] = system: C84 reactive CTL; assay: Recognition by C84 reactive CTL; format: cell-based, human
Description: The analogs with sequences C91=[…], (SEQ ID NO:4) and C92=[…] (SEQ ID NO:3) are also compositions of the present invention. In addition, substitutions at P4 (S→K) and P6 (F→V) affect residues that are expected to interact with TCR. […] Both C81 and C82 can form the core for antagonists of HER-2 reactive CTLs (to control and stop CTL reactions), and as such represent the first “universal” antagonists reported for stimulating CTLs.

Q: “ELVKEVSKV [Peptide C82, C85 analog with P4 (S→K) and P6 (F→V) substitutions]” was tested. Which HLA-A2 binding [1] did it give?
A: Its HLA-A2 binding is “binds HLA-A2”.

Q: And the “recognition by C84 reactive CTL” value [2]?
A: Its value is “no longer recognized by C84 reactive CTL”.
